Measured values as given in PMC12469269, “Investigating SMR Peptide Interactions with Breast Cancer-Associated Proteins” (International Journal of Molecular Sciences, 2025).

How the values were obtained:
[1] = target: Recombinant Human Vimentin Protein, CF (human) (UniProt P08670); assay: SPR
[2] = target: Recombinant Human GRP75/HSPA9B/Mortalin His Protein (human) (UniProt P38646); assay: SPR
Recombinant Human GRP75/HSPA9B/Mortalin His Protein (human), sequence (P38646 47-679): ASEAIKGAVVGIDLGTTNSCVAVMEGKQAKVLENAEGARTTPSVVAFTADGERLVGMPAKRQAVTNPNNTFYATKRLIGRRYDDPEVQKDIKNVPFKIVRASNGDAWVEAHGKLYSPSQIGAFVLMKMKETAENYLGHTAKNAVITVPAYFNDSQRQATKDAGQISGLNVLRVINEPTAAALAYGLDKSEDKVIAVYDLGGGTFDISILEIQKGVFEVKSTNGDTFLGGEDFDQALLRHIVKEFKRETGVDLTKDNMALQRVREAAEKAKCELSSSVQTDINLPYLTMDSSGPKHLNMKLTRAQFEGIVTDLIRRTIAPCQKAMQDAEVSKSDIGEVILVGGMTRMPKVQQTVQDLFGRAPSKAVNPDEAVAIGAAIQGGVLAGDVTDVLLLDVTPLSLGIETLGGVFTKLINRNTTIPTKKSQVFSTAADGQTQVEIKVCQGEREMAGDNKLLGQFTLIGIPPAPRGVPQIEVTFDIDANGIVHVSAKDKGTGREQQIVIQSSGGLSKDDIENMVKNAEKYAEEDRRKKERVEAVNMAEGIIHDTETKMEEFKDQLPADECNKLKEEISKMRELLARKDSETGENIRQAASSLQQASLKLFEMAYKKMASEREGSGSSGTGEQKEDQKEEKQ

Recombinant Human Vimentin Protein, CF (human), sequence (P08670 whole entry): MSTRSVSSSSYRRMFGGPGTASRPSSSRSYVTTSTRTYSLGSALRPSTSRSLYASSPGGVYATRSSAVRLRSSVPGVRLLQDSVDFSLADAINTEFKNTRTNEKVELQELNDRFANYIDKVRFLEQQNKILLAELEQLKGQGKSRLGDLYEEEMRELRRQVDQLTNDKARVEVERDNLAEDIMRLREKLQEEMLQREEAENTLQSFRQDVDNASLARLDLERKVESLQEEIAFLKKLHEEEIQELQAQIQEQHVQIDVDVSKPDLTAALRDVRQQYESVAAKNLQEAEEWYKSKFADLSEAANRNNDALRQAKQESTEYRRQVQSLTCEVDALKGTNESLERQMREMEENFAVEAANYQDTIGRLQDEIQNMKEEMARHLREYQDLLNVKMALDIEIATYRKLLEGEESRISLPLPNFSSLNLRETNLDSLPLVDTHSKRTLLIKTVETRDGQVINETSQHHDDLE

Work on SMRwt peptide yielded a Kd [1] of 6.63 µM and a Kd [2] of 20.7 µM.
